According to doi:10.1101/758797 (bioRxiv, 2019):

Target: VPS15 (human, UniProt Q99570 1-1358)
Experiment: cryo-EM structure

Chain of VPS15 (Q99570 whole entry): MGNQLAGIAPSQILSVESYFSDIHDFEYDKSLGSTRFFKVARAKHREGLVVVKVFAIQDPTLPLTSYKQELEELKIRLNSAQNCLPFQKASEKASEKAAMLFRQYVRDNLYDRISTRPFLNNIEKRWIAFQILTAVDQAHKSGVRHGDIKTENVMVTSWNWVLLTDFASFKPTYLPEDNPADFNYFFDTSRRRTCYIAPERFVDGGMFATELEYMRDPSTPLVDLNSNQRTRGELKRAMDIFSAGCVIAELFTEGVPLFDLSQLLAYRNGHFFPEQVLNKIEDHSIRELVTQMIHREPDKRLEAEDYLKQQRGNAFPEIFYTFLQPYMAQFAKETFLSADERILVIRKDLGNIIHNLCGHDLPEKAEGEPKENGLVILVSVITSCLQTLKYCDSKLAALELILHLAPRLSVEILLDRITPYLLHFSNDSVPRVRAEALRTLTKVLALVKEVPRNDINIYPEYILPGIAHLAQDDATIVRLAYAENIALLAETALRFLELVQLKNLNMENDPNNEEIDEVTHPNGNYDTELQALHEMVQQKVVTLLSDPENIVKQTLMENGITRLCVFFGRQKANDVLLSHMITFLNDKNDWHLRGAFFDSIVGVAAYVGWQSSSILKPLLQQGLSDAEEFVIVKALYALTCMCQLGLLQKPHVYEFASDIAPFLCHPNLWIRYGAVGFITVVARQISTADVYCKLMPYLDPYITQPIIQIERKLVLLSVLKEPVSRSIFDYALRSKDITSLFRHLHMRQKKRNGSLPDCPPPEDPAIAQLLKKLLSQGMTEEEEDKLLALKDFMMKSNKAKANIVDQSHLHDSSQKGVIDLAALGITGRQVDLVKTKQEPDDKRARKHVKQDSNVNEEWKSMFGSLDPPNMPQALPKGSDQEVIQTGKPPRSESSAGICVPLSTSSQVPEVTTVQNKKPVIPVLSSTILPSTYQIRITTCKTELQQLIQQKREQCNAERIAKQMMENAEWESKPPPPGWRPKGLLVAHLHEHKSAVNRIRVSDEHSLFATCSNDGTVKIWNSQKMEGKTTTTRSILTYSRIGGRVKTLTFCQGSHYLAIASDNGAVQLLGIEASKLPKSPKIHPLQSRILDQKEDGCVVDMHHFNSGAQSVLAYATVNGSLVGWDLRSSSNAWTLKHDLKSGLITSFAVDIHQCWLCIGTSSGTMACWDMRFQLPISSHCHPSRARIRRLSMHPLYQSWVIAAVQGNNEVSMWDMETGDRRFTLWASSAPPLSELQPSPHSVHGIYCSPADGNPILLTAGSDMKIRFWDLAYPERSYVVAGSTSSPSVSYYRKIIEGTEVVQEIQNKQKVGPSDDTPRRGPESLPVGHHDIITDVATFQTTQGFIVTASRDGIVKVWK

binding result: binds
B1: NRBF2^MIT as fused in MIT-Fusion (NRBF2 residues 1-159, S113A, S120A) (domain or fragment)
chain: MEVMEGPLNLAHQQSRRADRLLAAGKYEEAISCHKKAAAYLSEAMKLTQSEQAHLSLELQRDSHMKQLLLIQERWKRAQREERLKAQQNTDKDAAAHLQTSHKPSAEDAEGQAPLSQKYAPSTEKCLPEIQGIFDRDPDTLLYLLQQKSEPAEPCIGSK
